Experimental data as given in patent US11945858B2, “Antibodies and antibody fragments against HNAV1.7 channel and their use in pain and cancer indications” (NATIONAL RESEARCH COUNCIL OF CANADA, priority 2018, dated 2024).

Legend:
FC5DIE3IR [1] = target: T1, FC5DIE3IR (Homo sapiens, UniProt Q15858); assay: Hydrogen-Deuterium Exchange Mass Spectrometry (HDX-MS); type: binding; conditions: labelling 1, 10 and 60 min
T1 construct: The supernatant was collected and loaded on a 5 ml MabSelect™ SuRe™ column; made in house; host or cells: CHO-3E7 (transient, pTT5 vector), purified from supernatant

[2] = tested on: CFA-induced thermal hyperalgesia; assay: Hargreaves Model of Hyperalgesia in rats; type: in vivo, rat
Procedure, shortened: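 Thermal hyperalgesia was measured with a radiant heat source applied to the plantar surface of both hind paws using a plantar Analgesia Meter. Latency was taken as the time until the rat licked or flicked the paw, with an automatic 20 sec cut-off. Rats were housed singly and randomized, testers were blinded, and % MPE = (Test−Baseline)×100/(Cut-off−Baseline).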

FC5DIE3IR [3] = target: T1, FC5DIE3IR; assay: Evaluation of apparent affinity of purified mAbs in ELISA; type: binding; conditions: purified mAb, OD 405 nm
Protocol: Screening. Hybridoma supernatants were screened by ELISA to detect specific binders. To this end, 96-well half-area plates (Costar #3690) were coated with 25 μl of FC5DIE3IR or FC5-VHH or FC5-hFc-1X0 at 5 μg/ml in PBS and incubated overnight at 4° C. Microplates were washed 3 times with PBS, blocked with PBS-BSA 1%, and 25 μl of hybridoma supernatants were added and incubated at 37° C., 5% CO2 for 2 hours. Plates were washed 4 times with PBS-Tween 20 0.05% and incubated for one hour at 37° C., 5% CO2 with 25 μl of secondary antibody alkaline phosphatase conjugated F(ab′)2 goat anti-mouse IgG Fc-gamma specific (Jackson Immunoresearch #115-056-071) diluted 1/3000 in blocking buffer. After 4 washes with PBS-Tween 20 0.05%, 25 μl of a 1 mg/ml pNPP substrate solution was added and further incubated for one hour at 37° C. OD405 nm measurements were done using a microplate reader (Spectramax 340 PC, Molecular Devices).
Evaluation of apparent affinity in ELISA. Purified antibodies were assessed for their binding activity by ELISA in a dose-dependent binding curve. […] The data were analyzed with GraphPad Prism software using one-site specific binding-with Hill slope non-linear regression curve fit model to determine Bmax (maximum specific binding) and Kdapp (concentration needed to achieve a half-maximum binding at equilibrium) for each mAb tested. […]

B1: 3A8: anti-hNav1.7 mouse monoclonal antibody, IgG2a, k; heavy chain SEQ ID NO: 12, light chain SEQ ID NO: 18 (antibody, V domains shown)
VH: QVQLQQPGAELVKPGASVKLSCKASGYTFTNYWMHWVKQRPGQGLEWIGEINPSNGRANYNEKFKSKATLTVDKSSSTAYMQLSSLTSEDSAVYYCARSPYGYYDYWGQGTTLTVSSAKTTAPSVYPLAP
VL: DVLMTQTPLSLPVSLGDQASISCRSSQSLLHSNGNTYFHWYLQKPGQSPKLLIYKVSNRFFGVPDRFSGSGSGTDFTLKISRVEAEDLGVYFCSQITHVPLTFGAGTKLELKRADAAPTVSIFPPSS
modifications: Heavy chain of the 3A8 antibody without leader sequence; Light chain of the 3A8 antibody without leader sequence
Stabilization of FC5DIE3IR in response to mAb binding (residues, differential HDX-MS) (FC5DIE3IR [1]): Asn121-Tyr134 | Percentage of effect after injection (on left paw withdrawal) ([2]; 50 μg intraplantar, 0 h): 0% | Latency paw withdrawal ([2]; 50 μg intraplantar, 1 h): 6.08 ± 0.70 s | Percentage of effect after injection (on left paw withdrawal) ([2]; 50 μg intraplantar, 1 h): 18.00% | Latency paw withdrawal ([2]; 50 μg intraplantar, 2 h): 7.38 ± 0.67 s | Percentage of effect after injection (on left paw withdrawal) ([2]; 50 μg intraplantar, 2 h): 24.09% | Latency paw withdrawal ([2]; 50 μg intraplantar, 4 h): 6.79 ± 0.50 s | Percentage of effect after injection (on left paw withdrawal) ([2]; 50 μg intraplantar, 4 h): 22.40% | Maximum effect (% Effect) ([2]; 50 μg intraplantar, reached 2 hours after injection): 24.09±3.69% | Percentage of effect after injection (on left paw withdrawal) ([2]; 100 μg intraplantar, 0 h): 0% | Latency paw withdrawal ([2]; 100 μg intraplantar, 1 h): 9.56 ± 0.70 s | Percentage of effect after injection (on left paw withdrawal) ([2]; 100 μg intraplantar, 1 h): 33.96% | Latency paw withdrawal ([2]; 100 μg intraplantar, 2 h): 10.58 ± 0.90 s | Percentage of effect after injection (on left paw withdrawal) ([2]; 100 μg intraplantar, 2 h): 40.55% | Latency paw withdrawal ([2]; 100 μg intraplantar, 4 h): 10.28 ± 1.20 s | Percentage of effect after injection (on left paw withdrawal) ([2]; 100 μg intraplantar, 4 h): 40.18% | Maximum percentage of the effect (% Effect; % MPE) ([2]; 100 μg intraplantar, time of maximum (1, 2 or 4 h)): 40.55±2.20% | Duration of the reversal of hyperalgesia ([2]; 30 mg/kg intravenous): up to 24 h | Reversal of CFA-induced hyperalgesia (in words) ([2]; 30 mg/kg intravenous): able to reverse CFA-induced hyperalgesia | Percentage of the maximum possible effect (% MPE) ([2]; 30 mg/kg intravenous (tail vein), 4 h): 26.60±3.26% | Latency paw withdrawal time ([2]; 3A8 alone 75 μg intraplantar (FIG. 18)): 10.59 ± 0.87 s | Reversal of hyperalgesia (% MPE) ([2]; 3A8 alone 75 μg intraplantar, 4 h): 35.35%±4.44 | Latency paw withdrawal ([2]; intraplantar injection, 4 hours after administration (FIG. 10)): 8.50 ± 0.94 s | Bmax (maximum specific binding) (FC5DIE3IR [3]): 3.2
